Data as given in US20200317768A1 (published 2020).

What was measured:
[1] = biological target: T1, cynomolgus monkey FcγRIIa1 extracellular domain, C-terminal His-tag (cynomolgus monkey); assay: SPR (BIACORE), antibody captured, FcγR analyte
T1 construct: also called cyno FcγRIIa1; cynoFcgRIIa1; not shown: His-tag added to C-terminus
T1 chain: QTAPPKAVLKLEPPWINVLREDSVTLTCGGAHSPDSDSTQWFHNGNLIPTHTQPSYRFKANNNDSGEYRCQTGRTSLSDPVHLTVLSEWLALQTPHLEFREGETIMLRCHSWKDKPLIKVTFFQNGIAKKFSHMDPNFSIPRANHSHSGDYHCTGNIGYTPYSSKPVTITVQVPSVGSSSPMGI

[2] = biological target: T2, cynomolgus monkey FcγRIIa3 extracellular domain, C-terminal His-tag (cynomolgus monkey); assay: SPR (BIACORE), antibody captured, FcγR analyte
T2 construct: also called cyno FcγRIIa3; cynoFcgRIIa3; not shown: His-tag added to C-terminus
T2 chain: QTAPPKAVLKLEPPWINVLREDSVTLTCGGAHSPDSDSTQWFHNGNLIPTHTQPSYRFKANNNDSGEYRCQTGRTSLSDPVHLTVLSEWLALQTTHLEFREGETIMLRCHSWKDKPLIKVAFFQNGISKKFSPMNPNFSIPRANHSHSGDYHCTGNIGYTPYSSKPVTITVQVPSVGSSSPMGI

[3] = biological target: T3, human FcγRIIaH extracellular domain, C-terminal His-tag (human, UniProt P12318 34-217); assay: SPR (BIACORE), antibody captured, FcγR analyte
T3 construct: also called human FcγRIIa (type H); FcgRIIaH; not shown: His-tag added to C-terminus
T3 sequence: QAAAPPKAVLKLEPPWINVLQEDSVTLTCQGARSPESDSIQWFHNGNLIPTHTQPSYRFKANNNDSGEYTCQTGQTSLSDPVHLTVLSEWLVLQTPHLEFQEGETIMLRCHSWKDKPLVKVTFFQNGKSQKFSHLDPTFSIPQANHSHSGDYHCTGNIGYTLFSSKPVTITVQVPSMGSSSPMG

[4] = biological target: T4, human FcγRIIIaV extracellular domain, C-terminal His-tag (human, UniProt P08637 17-208); assay: SPR (BIACORE), antibody captured, FcγR analyte
T4 construct: also called FcgRIIIaV; not shown: His-tag added to C-terminus

[5] = biological target: T1, cynomolgus monkey FcγRIIa1 …; assay: SPR (BIACORE); KD of parent SG1 / KD of variant;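 note: relative to parent M103205H795-SG1 carrying the SG1 human heavy chain constant region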
[6] = biological target: T5, cynomolgus monkey FcγRIIa2 extracellular domain, C-terminal His-tag (cynomolgus monkey); assay: SPR (BIACORE); KD of parent SG1 / KD of variant;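 note: relative to parent M103205H795-SG1 carrying the SG1 human heavy chain constant region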
T5 construct: also called cyno FcγRIIa2; cynoFcgRIIa2; not shown: His-tag added to C-terminus
T5 chain: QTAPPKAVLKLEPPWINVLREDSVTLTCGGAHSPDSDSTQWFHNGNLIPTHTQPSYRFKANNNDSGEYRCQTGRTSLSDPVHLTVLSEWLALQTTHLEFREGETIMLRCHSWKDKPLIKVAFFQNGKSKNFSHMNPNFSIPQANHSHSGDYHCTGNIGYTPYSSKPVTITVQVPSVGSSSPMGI

[7] = biological target: T2, cynomolgus monkey FcγRIIa3 …; assay: SPR (BIACORE); KD of parent SG1 / KD of variant;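 note: relative to parent M103205H795-SG1 carrying the SG1 human heavy chain constant region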
[8] = biological target: T6, cynomolgus monkey FcγRIIb extracellular domain, C-terminal His-tag (cynomolgus monkey); assay: SPR (BIACORE); KD of parent SG1 / KD of variant;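 note: relative to parent M103205H795-SG1 carrying the SG1 human heavy chain constant region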
T6 construct: also called cyno FcγRIIb; cynoFcγRIIb; not shown: His-tag added to C-terminus
T6 chain: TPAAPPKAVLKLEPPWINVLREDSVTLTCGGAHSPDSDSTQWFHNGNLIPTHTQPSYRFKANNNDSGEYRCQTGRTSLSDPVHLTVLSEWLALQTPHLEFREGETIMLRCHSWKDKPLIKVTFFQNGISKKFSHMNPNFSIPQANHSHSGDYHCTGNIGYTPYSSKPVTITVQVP

[9] = biological target: T7, cynomolgus monkey FcγRIIIaS extracellular domain, C-terminal His-tag (cynomolgus monkey, UniProt A3RFZ7 21-206 (rhesus entry)); assay: SPR (BIACORE); KD of parent SG1 / KD of variant
T7 construct: also called cyno FcγRIIIaS; cynoFcγRIIIaS; not shown: His-tag added to C-terminus

[10] = biological target: T3, human FcγRIIaH extracellular domain, …; assay: SPR (BIACORE); KD of parent SG1 / KD of variant
[11] = biological target: T8, human FcγRIIaR extracellular domain, C-terminal His-tag (human, UniProt P12318 34-217); assay: SPR (BIACORE); KD of parent SG1 / KD of variant
T8 construct: also called human FcγRIIa (type R); FcgRIIaR; not shown: His-tag added to C-terminus
T8 chain: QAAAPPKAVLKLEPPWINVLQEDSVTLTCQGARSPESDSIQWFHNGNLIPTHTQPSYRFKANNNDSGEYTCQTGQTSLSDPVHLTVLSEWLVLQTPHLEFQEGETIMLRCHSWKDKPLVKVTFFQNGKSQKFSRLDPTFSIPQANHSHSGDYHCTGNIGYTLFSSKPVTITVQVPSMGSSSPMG

[12] = biological target: T4, human FcγRIIIaV extracellular domain, …; assay: SPR (BIACORE); KD of parent SG1 / KD of variant

T4 sequence (P08637 17-208 F176V): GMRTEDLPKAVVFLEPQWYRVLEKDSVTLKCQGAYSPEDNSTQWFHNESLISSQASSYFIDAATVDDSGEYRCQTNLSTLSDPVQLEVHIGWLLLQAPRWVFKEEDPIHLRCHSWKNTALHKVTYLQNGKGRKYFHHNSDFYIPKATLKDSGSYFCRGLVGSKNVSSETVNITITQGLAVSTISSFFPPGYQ
T7 sequence (A3RFZ7 21-206): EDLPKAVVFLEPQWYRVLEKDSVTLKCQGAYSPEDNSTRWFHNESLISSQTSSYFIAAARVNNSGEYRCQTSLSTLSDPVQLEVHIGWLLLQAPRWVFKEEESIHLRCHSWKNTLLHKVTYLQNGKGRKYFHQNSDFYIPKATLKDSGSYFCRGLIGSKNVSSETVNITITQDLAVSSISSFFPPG

B1: MS_M103205H795-SG1/M103202L889-SK1 (antibody, human IgG1, kappa)
heavy: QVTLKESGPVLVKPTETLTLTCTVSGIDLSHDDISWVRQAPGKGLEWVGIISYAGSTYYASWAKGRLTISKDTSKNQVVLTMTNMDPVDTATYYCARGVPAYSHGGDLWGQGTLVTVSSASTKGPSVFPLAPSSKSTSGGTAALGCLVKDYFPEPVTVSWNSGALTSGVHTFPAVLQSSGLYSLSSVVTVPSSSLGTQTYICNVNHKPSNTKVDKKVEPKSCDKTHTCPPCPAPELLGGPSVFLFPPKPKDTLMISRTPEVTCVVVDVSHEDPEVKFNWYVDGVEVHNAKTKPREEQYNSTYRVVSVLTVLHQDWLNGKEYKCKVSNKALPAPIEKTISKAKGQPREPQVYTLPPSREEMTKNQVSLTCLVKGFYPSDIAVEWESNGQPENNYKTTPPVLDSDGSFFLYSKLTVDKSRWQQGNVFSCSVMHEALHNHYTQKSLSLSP
light: DIVMTQSPATLSLSPGERATLSCTSSQSVYHANWLSWFQQKPGQPPKLLIYWASTLAYGVPSRFSGSGSGTDFTLTISSLQPEDAATYYCAGGYGGGRYAFGQGTKVEIKRTVAAPSVFIFPPSDEQLKSGTASVVCLLNNFYPREAKVQWKVDNALQSGNSQESVTEQDSKDSTYSLSSTLTLSKADYEKHKVYACEVTHQGLSSPVTKSFNRGEC
notes: Parent antibody with SG1 human heavy chain constant region; also called MS1032LO06-SG1
Question: What does the source list for B1?
Answer: Kd [1]: 4800 nM; Kd [2]: 8600 nM; Kd [3]: 890 nM; Kd [4]: 620 nM; KD fold (SG1 = 1) [5]: 1 fold; KD fold (SG1 = 1) [6]: 1 fold; KD fold (SG1 = 1) [7]: 1 fold; KD fold (SG1 = 1) [8]: 1 fold; KD fold (SG1 = 1) [9]: 1 fold; KD fold (SG1 = 1) [10]: 1 fold; KD fold (SG1 = 1) [11]: 1 fold; KD fold (SG1 = 1) [12]: 1 fold
